What was measured:
Test in all cases: pull-down
[1] = target: T1, GLABRA3 (GL3), recombinant GST or His fusion protein (Arabidopsis, UniProt Q9FN69 1-637)
T1 sequence: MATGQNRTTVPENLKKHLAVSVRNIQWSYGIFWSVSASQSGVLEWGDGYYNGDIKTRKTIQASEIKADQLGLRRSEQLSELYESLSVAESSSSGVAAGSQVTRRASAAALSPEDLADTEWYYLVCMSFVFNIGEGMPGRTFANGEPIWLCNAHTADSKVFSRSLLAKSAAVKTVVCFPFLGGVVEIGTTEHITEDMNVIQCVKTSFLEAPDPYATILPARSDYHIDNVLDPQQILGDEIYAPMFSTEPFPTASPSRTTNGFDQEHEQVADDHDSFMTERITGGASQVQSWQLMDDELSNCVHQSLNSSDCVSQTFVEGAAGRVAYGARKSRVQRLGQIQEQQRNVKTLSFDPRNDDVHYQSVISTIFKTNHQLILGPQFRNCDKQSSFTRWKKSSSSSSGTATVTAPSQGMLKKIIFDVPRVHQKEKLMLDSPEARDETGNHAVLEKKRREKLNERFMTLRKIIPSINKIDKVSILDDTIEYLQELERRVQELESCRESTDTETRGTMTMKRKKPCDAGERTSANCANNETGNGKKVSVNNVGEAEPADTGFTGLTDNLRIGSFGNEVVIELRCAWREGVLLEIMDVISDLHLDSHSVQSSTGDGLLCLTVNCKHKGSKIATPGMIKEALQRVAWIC

[2] = target: T2, ENHANCER OF GLABRA3 (EGL3), recombinant GST or His fusion protein (Arabidopsis, UniProt Q9CAD0 1-596)
T2 sequence: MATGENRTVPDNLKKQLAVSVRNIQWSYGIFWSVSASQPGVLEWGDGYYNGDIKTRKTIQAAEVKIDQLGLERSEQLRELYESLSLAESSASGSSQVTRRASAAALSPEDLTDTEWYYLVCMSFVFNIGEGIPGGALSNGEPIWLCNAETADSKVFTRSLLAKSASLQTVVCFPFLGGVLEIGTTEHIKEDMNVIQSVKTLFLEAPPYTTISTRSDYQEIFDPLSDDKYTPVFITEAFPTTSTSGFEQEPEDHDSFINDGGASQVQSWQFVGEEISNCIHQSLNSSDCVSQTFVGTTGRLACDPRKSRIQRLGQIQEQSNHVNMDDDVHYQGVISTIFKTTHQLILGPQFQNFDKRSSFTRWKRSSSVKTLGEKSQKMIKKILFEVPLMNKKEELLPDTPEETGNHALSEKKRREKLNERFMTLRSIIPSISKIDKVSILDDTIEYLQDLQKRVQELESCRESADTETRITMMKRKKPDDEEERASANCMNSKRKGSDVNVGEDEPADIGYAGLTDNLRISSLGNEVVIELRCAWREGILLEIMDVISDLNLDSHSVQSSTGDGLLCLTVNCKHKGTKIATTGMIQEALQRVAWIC

[3] = target: T3, GLABRA1 (GL1), recombinant GST or His fusion protein (Arabidopsis, UniProt P27900 1-228)
T3 sequence: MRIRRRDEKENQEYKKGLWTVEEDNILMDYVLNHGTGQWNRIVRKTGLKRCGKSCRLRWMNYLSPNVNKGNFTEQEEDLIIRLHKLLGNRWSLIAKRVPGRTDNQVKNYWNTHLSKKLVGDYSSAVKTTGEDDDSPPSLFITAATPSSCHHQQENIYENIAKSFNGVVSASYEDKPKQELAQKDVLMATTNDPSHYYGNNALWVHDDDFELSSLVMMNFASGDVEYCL

Measured: binding result

B1: TRIPTYCHON (TRY), recombinant GST or His fusion protein (natural protein)
chain: MDNTDRRRRRKQHKIALHDSEEVSSIEWEFINMTEQEEDLIFRMYRLVGDRWDLIAGRVPGRQPEEIERYWIMRNSEGFADKRRQLHSSSHKHTKPHRPRFSIYPS
binds: [1] | [2] | [3]
